Among the data in the Immune Epitope Database (IEDB) are Kd values, retold here.

Where only a bound is given, the exact number is not on record here.

One test addresses HLA-A*01:01. In words: IEDB peptide-MHC binding, purified MHC/direct/fluorescence; filed as Kd, often an IC50 or EC50 that approximates it; ≥ and ≤ were set here for values at or beyond the usual limits of such assays.
The target in test [1] is HLA-A*02:01. Described as above.
The target in the next test is HLA-A*03:01. The test is described as above.
Another test concerns the target HLA-A*11:01. Described as above.
The target in a further test is HLA-A*29:02. The description is as above.
A further test has as its target HLA-A*31:01. The test is described as above.
The target of test [2] is HLA-A*69:01. The test is described as above.
Test [3] has as its target HLA-B*15:01. Described as above.
The target in test [4] is HLA-B*18:01. Described as above.
Another test addresses HLA-B*40:01. The description is as above.
In a further test the target is HLA-B*44:02. Described as above.
The target of test [5] is HLA-B*46:01. The description is as above.
The target of another test is HLA-B*48:01. The description is as above.
The target of test [6] is HLA-B*57:01. Described as above.
The next test deals with HLA-B*58:01. The description is as above.
A further test has as its target HLA-B*08:01. The description is as above.
A further test concerns the target HLA-B*27:05. Described as above.
Another test concerns the target HLA-A*26:01. In words: IEDB peptide-MHC binding, purified MHC/competitive/fluorescence; filed as Kd, often an IC50 or EC50 that approximates it; ≥ and ≤ were set here for values at or beyond the usual limits of such assays.
For the next test, the target named is HLA-B*15:17. The description is as above.
A further test has as its target HLA-B*27:03. Described as above.
Test [7] deals with HLA-A*69:01. The description is as above. To be noted: source organism: Homo sapiens.
Test [8] deals with HLA-B*15:01. The test is described as above.
The target of test [9] is HLA-B*18:01. Described as above. To be noted: source organism: Homo sapiens.
For another test, the target named is HLA-B*39:01. The test is described as above.
Test [10] has as its target HLA-B*46:01. Described as above. The note with it: source organism: Homo sapiens.
The next test concerns the target HLA-B*51:01. The description is as above. To be noted: source organism: Homo sapiens.
The target in test [11] is HLA-B*57:01. Described as above. To be noted: source organism: Homo sapiens.
Test [12] deals with HLA-A*02:01. The test is described as above. The note with it: source organism: Salmonella enterica subsp. enterica serovar Typhi.
The next test has as its target HLA-B*07:02. Put plainly: IEDB peptide-MHC binding, purified MHC/direct/fluorescence; filed as Kd, often an IC50 or EC50 that approximates it; ≥ and ≤ were set here for values at or beyond the usual limits of such assays. To be noted: source organism: West Nile virus.
Where [13] appears, read: source organism: Yellow fever virus 17D.
Setting [14] is: source organism: Reston ebolavirus - Reston.
The mark [15] stands for this setting: source organism: Reston ebolavirus.
Setting [16] is: source organism: Mycobacterium tuberculosis variant bovis BCG str. Pasteur 1173P2.
Where [17] appears, read: source organism: West Nile virus.

The term Kd denotes the constant that tells how readily two partners part at equilibrium. Read a low Kd as higher affinity. As for CRTAFKPVL, the Kd with HLA-A*01:01 (setting [13]), with HLA-A*02:01 [1] (setting [13]), in the test with HLA-A*03:01 (setting [13]), in the test with HLA-A*11:01 (setting [13]), with HLA-A*29:02 (setting [13]) and with HLA-A*31:01 (setting [13]) was ≥ 20 µM throughout. Moreover, the Kd with HLA-A*69:01 [2] (setting [13]), in the test with HLA-B*15:01 [3] (setting [13]), in the test with HLA-B*18:01 [4] (setting [13]), with HLA-B*40:01 (setting [13]), in the test with HLA-B*44:02 (setting [13]) and with HLA-B*46:01 [5] (setting [13]) was ≥ 20 µM each time. Besides, the Kd in the test with HLA-B*48:01 (setting [13]), with HLA-B*57:01 [6] (setting [13]) and with HLA-B*58:01 (setting [13]) was ≥ 20 µM each time.

Regarding FHRKKTDAL, the Kd with HLA-A*01:01 (setting [14]), with HLA-A*02:01 [1] (setting [14]), with HLA-A*03:01 (setting [14]), with HLA-A*11:01 (setting [14]), with HLA-A*29:02 (setting [14]) and with HLA-A*31:01 (setting [14]) was ≥ 20 µM each time. The Kd is ≥ 20 µM in the test with HLA-A*69:01 [2] (setting [14]); 0.451 µM in the test with HLA-B*08:01 (setting [14]); ≥ 20 µM in the test with HLA-B*15:01 [3] (setting [14]); ≥ 20 µM in the test with HLA-B*18:01 [4] (setting [14]); ≥ 20 µM in the test with HLA-B*27:05 (setting [14]); ≥ 20 µM with HLA-B*40:01 (setting [14]). In addition, the Kd with HLA-B*44:02 (setting [14]), with HLA-B*46:01 [5] (setting [14]), with HLA-B*57:01 [6] (setting [14]), with HLA-B*58:01 (setting [14]), with HLA-A*26:01 (setting [15]) and in the test with HLA-B*15:17 (setting [15]) was ≥ 20 µM each time. For the same sequence, the Kd with HLA-B*27:03 (setting [15]) is ≥ 20 µM.

On to FLQQRKPPL, for which the Kd is 0.432 µM with HLA-A*02:01 [1] (source organism: Mus musculus); ≥ 20 µM with HLA-A*26:01 (source organism: Homo sapiens); ≥ 20 µM with HLA-A*69:01 [7]; ≥ 20 µM in the test with HLA-B*15:01 [8] (source organism: Homo sapiens); ≥ 20 µM with HLA-B*15:17 (source organism: Homo sapiens); ≥ 20 µM with HLA-B*18:01 [9]. Also, the Kd with HLA-B*27:03 (source organism: Homo sapiens), with HLA-B*39:01 (source organism: Homo sapiens), in the test with HLA-B*46:01 [10], with HLA-B*51:01 and with HLA-B*57:01 [11] was ≥ 20 µM in each case.

With HPTSRRELL, the Kd with HLA-A*01:01 (setting [16]) is ≥ 20 µM; in the test with HLA-A*03:01 (setting [16]) it was ≥ 20 µM; in the test with HLA-A*11:01 (setting [16]), ≥ 20 µM; with HLA-A*29:02 (setting [16]) it was ≥ 20 µM; in the test with HLA-A*31:01 (setting [16]), ≥ 20 µM; with HLA-B*08:01 (setting [16]), 8.77 µM. The Kd with HLA-B*15:01 [3] (setting [16]), with HLA-B*18:01 [4] (setting [16]), in the test with HLA-B*27:05 (setting [16]), with HLA-B*40:01 (setting [16]), with HLA-B*44:02 (setting [16]) and with HLA-B*46:01 [5] (setting [16]) was ≥ 20 µM throughout. Also, the Kd with HLA-B*48:01 (setting [16]), with HLA-B*57:01 [6] (setting [16]) and in the test with HLA-B*58:01 (setting [16]) was ≥ 20 µM in each case.

As to KQRCALPSL, the Kd with HLA-A*02:01 [12] worked out at 0.796 µM; in the test with HLA-B*15:01 [8] (source organism: Salmonella enterica subsp. enterica serovar Typhi) it was 0.246 µM.

In the case of LTDSDSPTY, the Kd was 0.025 µM with HLA-A*01:01 (source organism: Mycobacterium tuberculosis) and 0.14 µM in the test with HLA-A*29:02 (source organism: Mycobacterium tuberculosis str. Haarlem).

Turning to MQDVFTFYV, the Kd in the test with HLA-A*02:01 [1] (source organism: Homo sapiens) is 0.0008 µM; with HLA-A*26:01 (source organism: Homo sapiens) it was ≥ 20 µM; with HLA-B*15:01 [8] (source organism: Homo sapiens), ≥ 20 µM; with HLA-B*15:17 (source organism: Homo sapiens), ≥ 20 µM; with HLA-B*18:01 [9], ≥ 20 µM; in the test with HLA-B*27:03 (source organism: Homo sapiens) it was ≥ 20 µM. The Kd with HLA-B*46:01 [10], in the test with HLA-B*51:01 and with HLA-B*57:01 [11] was ≥ 20 µM throughout.

With VHREWFMDL, the Kd with HLA-A*01:01 (setting [17]), with HLA-A*02:01 [1] (setting [17]), in the test with HLA-A*03:01 (setting [17]), in the test with HLA-A*11:01 (setting [17]), with HLA-A*31:01 (setting [17]) and with HLA-A*69:01 [2] (setting [17]) was ≥ 20 µM throughout. The Kd with HLA-B*07:02, with HLA-B*15:01 [3] (setting [17]), in the test with HLA-B*18:01 [4] (setting [17]), with HLA-B*27:05 (setting [17]), with HLA-B*40:01 (setting [17]) and with HLA-B*44:02 (setting [17]) was ≥ 20 µM in each case. The Kd was ≥ 20 µM in the test with HLA-B*46:01 [5] (setting [17]); ≥ 20 µM in the test with HLA-B*48:01 (setting [17]); ≥ 20 µM with HLA-B*57:01 [6] (setting [17]); ≥ 20 µM in the test with HLA-B*58:01 (setting [17]); 1.48 µM in the test with HLA-B*39:01 (setting [17]).

On to YITDYSNDI, for which the Kd with HLA-A*02:01 [1] (source organism: Homo sapiens) is 0.0075 µM; in the test with HLA-A*26:01 (source organism: Homo sapiens), ≥ 20 µM; in the test with HLA-A*69:01 [7], ≥ 20 µM; with HLA-B*15:01 [8] (source organism: Homo sapiens) it was ≥ 20 µM; with HLA-B*15:17 (source organism: Homo sapiens), ≥ 20 µM; with HLA-B*18:01 [9] it was ≥ 20 µM. Besides, the Kd with HLA-B*27:03 (source organism: Homo sapiens), with HLA-B*39:01 (source organism: Homo sapiens), with HLA-B*46:01 [10], with HLA-B*51:01 and with HLA-B*57:01 [11] was ≥ 20 µM each time.
